# From patent publication US20140087995A1 (published 2014)
# Numbered stars: 1 amine (or outer) side, 2 acyl side, 3 side chain; on linkers, the order of the positions; unused ones are H or OH. Bridge positions count the residues as written; N and C are the ends. Side chains are listed from the residue outwards. Ends that are not written are not given here. * marks the point of attachment. C20 diacid = O=C(O)CCCCCCCCCCCCCCCCCCC(=O)*; γGlu = O=C(O)[C@H](CCC(=O)[*:2])N[*:1]; AEEA = NCCOCCOCC(=O)O
# T1: human calcitonin receptor (human, UniProt P30988 25-474)
# T1 sequence (looked up): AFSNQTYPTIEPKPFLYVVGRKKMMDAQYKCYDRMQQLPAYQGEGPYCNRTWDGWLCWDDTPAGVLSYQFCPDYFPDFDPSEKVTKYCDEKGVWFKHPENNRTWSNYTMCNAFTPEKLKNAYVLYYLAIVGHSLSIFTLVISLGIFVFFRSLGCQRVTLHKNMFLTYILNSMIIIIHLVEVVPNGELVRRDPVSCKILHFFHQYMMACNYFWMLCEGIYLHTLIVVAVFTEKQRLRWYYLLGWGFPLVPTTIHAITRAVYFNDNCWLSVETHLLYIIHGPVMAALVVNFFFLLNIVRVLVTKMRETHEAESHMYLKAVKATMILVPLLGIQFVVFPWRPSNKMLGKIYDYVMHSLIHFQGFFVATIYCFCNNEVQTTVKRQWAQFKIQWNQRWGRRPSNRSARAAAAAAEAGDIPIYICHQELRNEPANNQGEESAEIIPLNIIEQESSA
# T2: human amylin receptor (amylin 3(a) receptor: human calcitonin receptor co-expressed with RAMP-3) (human, UniProt P30988 25-474; O60896 24-148, limits assumed)
# T2 sequence (looked up) 1: T1 sequence (looked up)
# T2 sequence (looked up) 2: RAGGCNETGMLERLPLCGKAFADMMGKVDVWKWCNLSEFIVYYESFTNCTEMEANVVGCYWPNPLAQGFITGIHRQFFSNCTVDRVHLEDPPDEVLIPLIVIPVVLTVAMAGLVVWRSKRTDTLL
# B1: N^ε1-[2-[2-[2-[[(4S)-4-carboxy-4-(19-carboxynonadecanoylamino)butanoyl]amino]ethoxy]ethoxy]acetyl]-[Thr14,Arg17,Pro21,Pro27,Pro31]-h-amylin (peptide)
# peptide: K([AEEA-γGlu-C20 diacid])CNTATCATQRLATFLRHSSPNFGAIPSSTPVGSNTY-NH2
# modifications: disulfide 2-7; N-terminus assumed
# SMILES: CC[C@H](C)[C@H](NC(=O)[C@H](C)NC(=O)CNC(=O)[C@H](Cc1ccccc1)NC(=O)[C@H](CC(N)=O)NC(=O)[C@@H]1CCCN1C(=O)[C@H](CO)NC(=O)[C@H](CO)NC(=O)[C@H](Cc1c[nH]cn1)NC(=O)[C@H](CCCNC(=N)N)NC(=O)[C@H](CC(C)C)NC(=O)[C@H](Cc1ccccc1)NC(=O)[C@@H](NC(=O)[C@H](C)NC(=O)[C@H](CC(C)C)NC(=O)[C@H](CCCNC(=N)N)NC(=O)[C@H](CCC(N)=O)NC(=O)[C@@H](NC(=O)[C@H](C)NC(=O)[C@@H]1CSSC[C@H](NC(=O)[C@@H](N)CCCCNC(=O)COCCOCCNC(=O)CC[C@H](NC(=O)CCCCCCCCCCCCCCCCCCC(=O)O)C(=O)O)C(=O)N[C@@H](CC(N)=O)C(=O)N[C@@H]([C@@H](C)O)C(=O)N[C@@H](C)C(=O)N[C@@H]([C@@H](C)O)C(=O)N1)[C@@H](C)O)[C@@H](C)O)C(=O)N1CCC[C@H]1C(=O)N[C@@H](CO)C(=O)N[C@@H](CO)C(=O)N[C@H](C(=O)N1CCC[C@H]1C(=O)N[C@H](C(=O)NCC(=O)N[C@@H](CO)C(=O)N[C@@H](CC(N)=O)C(=O)N[C@H](C(=O)N[C@@H](Cc1ccc(O)cc1)C(N)=O)[C@@H](C)O)C(C)C)[C@@H](C)O
# notes: also called compound 75
# B2: N^ε1-[(4S)-4-carboxy-4-(19-carboxynonadecanoylamino)butanoyl]-[Arg14,Arg17,Pro21,Pro27,Pro31]-h-amylin (peptide)
# peptide: K([γGlu-C20 diacid])CNTATCATQRLARFLRHSSPNFGAIPSSTPVGSNTY-NH2
# modifications: disulfide 2-7; N-terminus assumed
# SMILES: CC[C@H](C)[C@H](NC(=O)[C@H](C)NC(=O)CNC(=O)[C@H](Cc1ccccc1)NC(=O)[C@H](CC(N)=O)NC(=O)[C@@H]1CCCN1C(=O)[C@H](CO)NC(=O)[C@H](CO)NC(=O)[C@H](Cc1c[nH]cn1)NC(=O)[C@H](CCCNC(=N)N)NC(=O)[C@H](CC(C)C)NC(=O)[C@H](Cc1ccccc1)NC(=O)[C@H](CCCNC(=N)N)NC(=O)[C@H](C)NC(=O)[C@H](CC(C)C)NC(=O)[C@H](CCCNC(=N)N)NC(=O)[C@H](CCC(N)=O)NC(=O)[C@@H](NC(=O)[C@H](C)NC(=O)[C@@H]1CSSC[C@H](NC(=O)[C@@H](N)CCCCNC(=O)CC[C@H](NC(=O)CCCCCCCCCCCCCCCCCCC(=O)O)C(=O)O)C(=O)N[C@@H](CC(N)=O)C(=O)N[C@@H]([C@@H](C)O)C(=O)N[C@@H](C)C(=O)N[C@@H]([C@@H](C)O)C(=O)N1)[C@@H](C)O)C(=O)N1CCC[C@H]1C(=O)N[C@@H](CO)C(=O)N[C@@H](CO)C(=O)N[C@H](C(=O)N1CCC[C@H]1C(=O)N[C@H](C(=O)NCC(=O)N[C@@H](CO)C(=O)N[C@@H](CC(N)=O)C(=O)N[C@H](C(=O)N[C@@H](Cc1ccc(O)cc1)C(N)=O)[C@@H](C)O)C(C)C)[C@@H](C)O
# notes: also called compound 63
# B3: N^ε1-[(4S)-4-carboxy-4-(19-carboxynonadecanoylamino)butanoyl]-[Arg14,Arg17,Pro21,Pro27,Pro34]-h-amylin (peptide)
# peptide: K([γGlu-C20 diacid])CNTATCATQRLARFLRHSSPNFGAIPSSTNVGPNTY-NH2
# modifications: disulfide 2-7; N-terminus assumed
# SMILES: CC[C@H](C)[C@H](NC(=O)[C@H](C)NC(=O)CNC(=O)[C@H](Cc1ccccc1)NC(=O)[C@H](CC(N)=O)NC(=O)[C@@H]1CCCN1C(=O)[C@H](CO)NC(=O)[C@H](CO)NC(=O)[C@H](Cc1c[nH]cn1)NC(=O)[C@H](CCCNC(=N)N)NC(=O)[C@H](CC(C)C)NC(=O)[C@H](Cc1ccccc1)NC(=O)[C@H](CCCNC(=N)N)NC(=O)[C@H](C)NC(=O)[C@H](CC(C)C)NC(=O)[C@H](CCCNC(=N)N)NC(=O)[C@H](CCC(N)=O)NC(=O)[C@@H](NC(=O)[C@H](C)NC(=O)[C@@H]1CSSC[C@H](NC(=O)[C@@H](N)CCCCNC(=O)CC[C@H](NC(=O)CCCCCCCCCCCCCCCCCCC(=O)O)C(=O)O)C(=O)N[C@@H](CC(N)=O)C(=O)N[C@@H]([C@@H](C)O)C(=O)N[C@@H](C)C(=O)N[C@@H]([C@@H](C)O)C(=O)N1)[C@@H](C)O)C(=O)N1CCC[C@H]1C(=O)N[C@@H](CO)C(=O)N[C@@H](CO)C(=O)N[C@H](C(=O)N[C@@H](CC(N)=O)C(=O)N[C@H](C(=O)NCC(=O)N1CCC[C@H]1C(=O)N[C@@H](CC(N)=O)C(=O)N[C@H](C(=O)N[C@@H](Cc1ccc(O)cc1)C(N)=O)[C@@H](C)O)C(C)C)[C@@H](C)O
# notes: also called compound 65
# B4: N^ε1-[(4S)-4-carboxy-4-(19-carboxynonadecanoylamino)butanoyl]-[Arg17,Pro21,Pro27,His34]-h-amylin (peptide)
# peptide: K([γGlu-C20 diacid])CNTATCATQRLANFLRHSSPNFGAIPSSTNVGHNTY-NH2
# modifications: disulfide 2-7; N-terminus assumed
# SMILES: CC[C@H](C)[C@H](NC(=O)[C@H](C)NC(=O)CNC(=O)[C@H](Cc1ccccc1)NC(=O)[C@H](CC(N)=O)NC(=O)[C@@H]1CCCN1C(=O)[C@H](CO)NC(=O)[C@H](CO)NC(=O)[C@H](Cc1c[nH]cn1)NC(=O)[C@H](CCCNC(=N)N)NC(=O)[C@H](CC(C)C)NC(=O)[C@H](Cc1ccccc1)NC(=O)[C@H](CC(N)=O)NC(=O)[C@H](C)NC(=O)[C@H](CC(C)C)NC(=O)[C@H](CCCNC(=N)N)NC(=O)[C@H](CCC(N)=O)NC(=O)[C@@H](NC(=O)[C@H](C)NC(=O)[C@@H]1CSSC[C@H](NC(=O)[C@@H](N)CCCCNC(=O)CC[C@H](NC(=O)CCCCCCCCCCCCCCCCCCC(=O)O)C(=O)O)C(=O)N[C@@H](CC(N)=O)C(=O)N[C@@H]([C@@H](C)O)C(=O)N[C@@H](C)C(=O)N[C@@H]([C@@H](C)O)C(=O)N1)[C@@H](C)O)C(=O)N1CCC[C@H]1C(=O)N[C@@H](CO)C(=O)N[C@@H](CO)C(=O)N[C@H](C(=O)N[C@@H](CC(N)=O)C(=O)N[C@H](C(=O)NCC(=O)N[C@@H](Cc1c[nH]cn1)C(=O)N[C@@H](CC(N)=O)C(=O)N[C@H](C(=O)N[C@@H](Cc1ccc(O)cc1)C(N)=O)[C@@H](C)O)C(C)C)[C@@H](C)O
# notes: also called compound 77
# B5: N^ε1-[(4S)-4-carboxy-4-(19-carboxynonadecanoylamino)butanoyl]-[Arg17,Pro21,Pro27,His35]-h-amylin (peptide)
# peptide: K([γGlu-C20 diacid])CNTATCATQRLANFLRHSSPNFGAIPSSTNVGSHTY-NH2
# modifications: disulfide 2-7; N-terminus assumed
# SMILES: CC[C@H](C)[C@H](NC(=O)[C@H](C)NC(=O)CNC(=O)[C@H](Cc1ccccc1)NC(=O)[C@H](CC(N)=O)NC(=O)[C@@H]1CCCN1C(=O)[C@H](CO)NC(=O)[C@H](CO)NC(=O)[C@H](Cc1c[nH]cn1)NC(=O)[C@H](CCCNC(=N)N)NC(=O)[C@H](CC(C)C)NC(=O)[C@H](Cc1ccccc1)NC(=O)[C@H](CC(N)=O)NC(=O)[C@H](C)NC(=O)[C@H](CC(C)C)NC(=O)[C@H](CCCNC(=N)N)NC(=O)[C@H](CCC(N)=O)NC(=O)[C@@H](NC(=O)[C@H](C)NC(=O)[C@@H]1CSSC[C@H](NC(=O)[C@@H](N)CCCCNC(=O)CC[C@H](NC(=O)CCCCCCCCCCCCCCCCCCC(=O)O)C(=O)O)C(=O)N[C@@H](CC(N)=O)C(=O)N[C@@H]([C@@H](C)O)C(=O)N[C@@H](C)C(=O)N[C@@H]([C@@H](C)O)C(=O)N1)[C@@H](C)O)C(=O)N1CCC[C@H]1C(=O)N[C@@H](CO)C(=O)N[C@@H](CO)C(=O)N[C@H](C(=O)N[C@@H](CC(N)=O)C(=O)N[C@H](C(=O)NCC(=O)N[C@@H](CO)C(=O)N[C@@H](Cc1c[nH]cn1)C(=O)N[C@H](C(=O)N[C@@H](Cc1ccc(O)cc1)C(N)=O)[C@@H](C)O)C(C)C)[C@@H](C)O
# notes: also called compound 60
# B6: N^ε1-[(4S)-4-carboxy-4-(19-carboxynonadecanoylamino)butanoyl]-[Glu14,Arg17,Pro21,Pro27,Arg35]-h-amylin (peptide)
# peptide: K([γGlu-C20 diacid])CNTATCATQRLAEFLRHSSPNFGAIPSSTNVGSRTY-NH2
# modifications: disulfide 2-7; N-terminus assumed
# SMILES: CC[C@H](C)[C@H](NC(=O)[C@H](C)NC(=O)CNC(=O)[C@H](Cc1ccccc1)NC(=O)[C@H](CC(N)=O)NC(=O)[C@@H]1CCCN1C(=O)[C@H](CO)NC(=O)[C@H](CO)NC(=O)[C@H](Cc1c[nH]cn1)NC(=O)[C@H](CCCNC(=N)N)NC(=O)[C@H](CC(C)C)NC(=O)[C@H](Cc1ccccc1)NC(=O)[C@H](CCC(=O)O)NC(=O)[C@H](C)NC(=O)[C@H](CC(C)C)NC(=O)[C@H](CCCNC(=N)N)NC(=O)[C@H](CCC(N)=O)NC(=O)[C@@H](NC(=O)[C@H](C)NC(=O)[C@@H]1CSSC[C@H](NC(=O)[C@@H](N)CCCCNC(=O)CC[C@H](NC(=O)CCCCCCCCCCCCCCCCCCC(=O)O)C(=O)O)C(=O)N[C@@H](CC(N)=O)C(=O)N[C@@H]([C@@H](C)O)C(=O)N[C@@H](C)C(=O)N[C@@H]([C@@H](C)O)C(=O)N1)[C@@H](C)O)C(=O)N1CCC[C@H]1C(=O)N[C@@H](CO)C(=O)N[C@@H](CO)C(=O)N[C@H](C(=O)N[C@@H](CC(N)=O)C(=O)N[C@H](C(=O)NCC(=O)N[C@@H](CO)C(=O)N[C@@H](CCCNC(=N)N)C(=O)N[C@H](C(=O)N[C@@H](Cc1ccc(O)cc1)C(N)=O)[C@@H](C)O)C(C)C)[C@@H](C)O
# notes: also called compound 51
# Target: T1, human calcitonin receptor
# Assay: cell-based or functional assay
Binder,Ratio hCT/hAmylin funct. (hCTR EC50 against hAmylin-R EC50),hCTR funct. EC50 [nM]
B1,30.6,9.07
B2,139,5.13
B3,38.6,9.33
B4,37.3,5.4
B5,15.3,5.36
B6,14,5.22

# Target: T2, human amylin receptor (amylin 3(a) …)
# Assay: cell-based or functional assay
row,Binder,hAmylin-R funct. EC50 [nM]
1,B1,0.296
2,B2,0.037
3,B3,0.242
4,B4,0.145
5,B5,0.351
6,B6,0.372
